Assay results as given in publication PMC2816671 (2010).

B1: plasmin (protein)
chain: VVGGCVAHPHSWPWQVSLRTRFGMHFCGGTLISPEWVLTAAHCLEKSPRPSSYKVILGAHQEVNLEPHVQEIEVSRLFLEPTRKDIALLKLSSPAVITDKVIPACLPSPNYVVADRTECFITGWGETQGTFGAGLLKEAQLPVIENKVCNRYEFLNGRVQSTELCAGHLAGGTDSCQGDSGGPLVCFEKDKYILQGVTSWGLGCARPNKPGVYVRVSRFVTWIEGVMRNN
B2: active-site blocked plasmin (protein)
chain 1: KVYLSECKTGNGKNYRGTMSKTKNGITCQKWSSTSPHRPRFSPATHPSEGLEENYCRNPDNDPQGPWCYTTDPEKRYDYCDILECEEECMHCSGENYDGKISKTMSGLECQAWDSQSPHAHGYIPSKFPNKNLKKNYCRNPDRELRPWCFTTDPNKRWELCDIPRCTTPPPSSGPTYQCLKGTGENYRGNVAVTVSGHTCQHWSAQTPHTHNRTPENFPCKNLDENYCRNPDGKRAPWCHTTNSQVRWEYCKIPSCDSSPVSTEQLAPTAPPELTPVVQDCYHGDGQSYRGTSSTTTTGKKCQSWSSMTPHRHQKTPENYPNAGLTMNYCRNPDADKGPWCFTTDPSVRWEYCNLKKCSGTEASVVAPPPVVLLPDVETPSEEDCMFGNGKGYRGKRATTVTGTPCQDWAAQEPHRHSIFTPETNPRAGLEKNYCRNPDGDVGGPWCYTTNPRKLYDYCDVPQCAAPSFDCGKPQVEPKKCPGR
chain 2: B1 chain
modifications: Pefabloc (AEBSF) active-site blocked
B3: plasminogen (protein)
chain: EPLDDYVNTQGASLFSVTKKQLGAGSIEECAAKCEEDEEFTCRAFQYHSKEQQCVIMAENRKSSIIIRMRDVVLFEKKVYLSECKTGNGKNYRGTMSKTKNGITCQKWSSTSPHRPRFSPATHPSEGLEENYCRNPDNDPQGPWCYTTDPEKRYDYCDILECEEECMHCSGENYDGKISKTMSGLECQAWDSQSPHAHGYIPSKFPNKNLKKNYCRNPDRELRPWCFTTDPNKRWELCDIPRCTTPPPSSGPTYQCLKGTGENYRGNVAVTVSGHTCQHWSAQTPHTHNRTPENFPCKNLDENYCRNPDGKRAPWCHTTNSQVRWEYCKIPSCDSSPVSTEQLAPTAPPELTPVVQDCYHGDGQSYRGTSSTTTTGKKCQSWSSMTPHRHQKTPENYPNAGLTMNYCRNPDADKGPWCFTTDPSVRWEYCNLKKCSGTEASVVAPPPVVLLPDVETPSEEDCMFGNGKGYRGKRATTVTGTPCQDWAAQEPHRHSIFTPETNPRAGLEKNYCRNPDGDVGGPWCYTTNPRKLYDYCDVPQCAAPSFDCGKPQVEPKKCPGRVVGGCVAHPHSWPWQVSLRTRFGMHFCGGTLISPEWVLTAAHCLEKSPRPSSYKVILGAHQEVNLEPHVQEIEVSRLFLEPTRKDIALLKLSSPAVITDKVIPACLPSPNYVVADRTECFITGWGETQGTFGAGLLKEAQLPVIENKVCNRYEFLNGRVQSTELCAGHLAGGTDSCQGDSGGPLVCFEKDKYILQGVTSWGLGCARPNKPGVYVRVSRFVTWIEGVMRNN

molecular target: von Willebrand factor (Homo sapiens, UniProt P04275); experiment: Eu-labelled ligand solid-phase equilibrium binding

First: B1
Second: B2
The Kd of the first is 1.7-fold lower: 160 nM for the first, 270 nM for the second. The first binds more tightly here.

Work on B3 yielded a Kd of 100 nM.
